In the supplement of paper PMC11246515:
± gives the standard deviation of the averaged measurements.

Assay: total protein half-life in vivo (active degradation + dilution); higher = more stable protein
[1] = E. coli NCM3722 delta-clpP delta-lon delta-hslV, growth: N-lim chemostat, doubling time 6 h
[2] = E. coli NCM3722 delta-clpP, growth: N-lim chemostat, doubling time 6 h
[3] = E. coli NCM3722 delta-hslV, growth: N-lim chemostat, doubling time 6 h
[4] = E. coli NCM3722 delta-lon, growth: N-lim chemostat, doubling time 6 h
[5] = E. coli NCM3722 delta-smpB, growth: N-lim chemostat, doubling time 6 h
[6] = wild type E. coli NCM3722, growth: C-lim chemostat, doubling time 3 h
[7] = wild type E. coli NCM3722, growth: C-lim chemostat, doubling time 6 h
[8] = wild type E. coli NCM3722, growth: C-lim chemostat, doubling time 12 h
[9] = wild type E. coli NCM3722, growth: N-lim chemostat, doubling time 6 h
[10] = wild type E. coli NCM3722, growth: N-lim chemostat, doubling time 12 h
[11] = wild type E. coli NCM3722, growth: P-lim chemostat, doubling time 6 h
[12] = wild type E. coli NCM3722, growth: P-lim chemostat, doubling time 12 h

Sequence | total protein half-life in vivo [1] | total protein half-life in vivo [2] | total protein half-life in vivo [3] | total protein half-life in vivo [4] | total protein half-life in vivo [5] | total protein half-life in vivo [6] | total protein half-life in vivo [7] | total protein half-life in vivo [8] | total protein half-life in vivo [9] | total protein half-life in vivo [10] | total protein half-life in vivo [11] | total protein half-life in vivo [12]
MFDFASYHRAATLADAINLLADNPQAKLLAGGTDVLIQLHHHNDRYRHIVDIHNLAELRGITLAEDGSLRIGSATTFTQLIEDPITQRHLPALCAAATSIAGPQIRNVATYGGNICNGATSADSATPTLIYDAKLEIHSPRGVRFVPINGFHTGPGKVSLEHDEILVAFHFPPQPKEHAGSAHFKYAMRDAMDISTIGCAAHCRLDNGNFSELRLAFGVAAPTPIRCQHAEQTAQNAPLNLQTLEAISESVLQDVAPRSSWRASKEFRLHLIQTMTKKVISEAVAAAGGKLQ | 4.54 ± 1.2 h | 2.5 ± 0.1 h | 3.19 h | 3.61 ± 0.29 h | 2.379 ± 0.0096 h | 2.25 ± 0.11 h | 4.84 ± 0.91 h | 6.07 ± 0.36 h | 2.52 ± 0.089 h | 4 h | 4.56 ± 0.36 h | 9.6 ± 1.6 h
MFDIGFSELLLVFIIGLVVLGPQRLPVAVKTVAGWIRALRSLATTVQNELTQELKLQEFQDSLKKVEKASLTNLTPELKASMDELRQAAESMKRSYVANDPEKASDEAHTIHNPVVKDNEAAHEGVTPAAAQTQASSPEQKPETTPEPVVKPAADAEPKTAAPSPSSSDKP | 4.29 ± 0.055 h | 5.27 ± 1.5 h | 5.04 ± 0.61 h | 3.92 ± 0.51 h | 4.49 ± 0.26 h | 2.57 ± 0.12 h | 4.41 ± 0.55 h | 7 ± 1.1 h | 4.65 ± 0.15 h | 8.87 ± 1.3 h | 4.27 ± 0.49 h | 7.92 ± 0.28 h
MFDIGVNLTSSQFAKDRDDVVACAFDAGVNGLLITGTNLRESQQAQKLARQYSSCWSTAGVHPHDSSQWQAATEEAIIELAAQPEVVAIGECGLDFNRNFSTPEEQERAFVAQLRIAADLNMPVFMHCRDAHERFMTLLEPWLDKLPGAVLHCFTGTREEMQACVAHGIYIGITGWVCDERRGLELRELLPLIPAEKLLIETDAPYLLPRDLTPKPSSRRNEPAHLPHILQRIAHWRGEDAAWLAATTDANVKTLFGIAF | 5.07 ± 0.43 h | 4.32 ± 0.31 h | – | 5.25 ± 0.68 h | 3.97 ± 0.48 h | 2.67 h | 5.44 ± 0.34 h | 8.95 ± 0.15 h | 5.25 ± 1 h | 8.13 ± 1.8 h | 4.15 ± 0.38 h | 9.01 ± 0.23 h
MFDRYDAGEQAVLVHIYFTQDKDMEDLQEFESLVSSAGVEALQVITGSRKAPHPKYFVGEGKAVEIAEAVKATGASVVLFDHALSPAQERNLERLCECRVIDRTGLILDIFAQRARTHEGKLQVELAQLRHLATRLVRGWTHLERQKGGIGLRGPGETQLETDRRLLRNRIVQIQSRLERVEKQREQGRQSRIKADVPTVSLVGYTNAGKSTLFNRITEARVYAADQLFATLDPTLRRIDVADVGETVLADTVGFIRHLPHDLVAAFKATLQETRQATLLLHVIDAADVRVQENIEAVNTVLEEIDAHEIPTLLVMNKIDMLEDFEPRIDRDEENKPNRVWLSAQTGAGIPQLFQALTERLSGEVAQHTLRLPPQEGRLRSRFYQLQAIEKEWMEEDGSVSLQVRMPIVDWRRLCKQEPALIDYLI | 5.01 ± 0.4 h | 4.19 ± 0.56 h | 3.18 ± 0.019 h | 3.87 ± 0.12 h | 2.77 ± 0.12 h | 2.34 ± 0.078 h | 4.15 ± 0.4 h | 5.93 ± 0.57 h | 3.31 ± 0.19 h | 4.68 ± 0.19 h | 3.34 ± 0.12 h | 5.9 ± 0.61 h
MFDSTLNPLWQRYILAVQEEVKPALGCTEPISLALAAAVAAAELEGPVERVEAWVSPNLMKNGLGVTVPGTGMVGLPIAAALGALGGNANAGLEVLKDATAQAIADAKALLAAGKVSVKIQEPCDEILFSRAKVWNGEKWACVTIVGGHTNIVHIETHDGVVFTQQACVAEGEQESPLTVLSRTTLAEILKFVNEVPFAAIRFILDSAKLNCALSQEGLSGKWGLHIGATLEKQCERGLLAKDLSSSIVIRTSAASDARMGGATLPAMSNSGSGNQGITATMPVVVVAEHFGADDERLARALMLSHLSAIYIHNQLPRLSALCAATTAAMGAAAGMAWLVDGRYETISMAISSMIGDVSGMICDGASNSCAMKVSTSASAAWKAVLMALDDTAVTGNEGIVAHDVEQSIANLCALASHSMQQTDRQIIEIMASKAR | 4.74 ± 0.075 h | – | – | – | – | – | – | – | – | – | – | –
MFEINPVNNRIQDLTERSDVLRGYLDYDAKKERLEEVNAELEQPDVWNEPERAQALGKERSSLEAVVDTLDQMKQGLEDVSGLLELAVEADDEETFNEAVAELDALEEKLAQLEFRRMFSGEYDSADCYLDIQAGSGGTEAQDWASMLERMYLRWAESRGFKTEIIEESEGEVAGIKSVTIKISGDYAYGWLRTETGVHRLVRKSPFDSGGRRHTSFSSAFVYPEVDDDIDIEINPADLRIDVYRTSGAGGQHVNRTESAVRITHIPTGIVTQCQNDRSQHKNKDQAMKQMKAKLYELEMQKKNAEKQAMEDNKSDIGWGSQIRSYVLDDSRIKDLRTGVETRNTQAVLDGSLDQFIEASLKAGL | 5.162 ± 0.05 h | 4.669 ± 0.007 h | 4.335 ± 0.033 h | 5.14 ± 0.28 h | 4.282 ± 0.0079 h | 2.79 ± 0.044 h | 4.99 ± 0.27 h | 8.37 ± 0.37 h | 4.37 ± 0.28 h | 6.87 ± 0.013 h | 4.6 ± 0.33 h | 8.54 ± 0.3 h
MFEITGINVSGALKAVVMATGFENPLSSVNEIETKLSALLGSETTGEILFDLLCANGPEWNRFVTLEMKYGRIMLDTAKIIDEQDVPTHILSKLTFTLRNHPEYLEASVLSPDDVRQVLSMDF | 5.32 ± 0.4 h | – | – | – | – | 2.73 h | 5.11 h | – | – | – | – | –
MFGKLSLDAVPFHEPIVMVTIAGIILGGLALVGLITYFGKWTYLWKEWLTSVDHKRLGIMYIIVAIVMLLRGFADAIMMRSQQALASAGEAGFLPPHHYDQIFTAHGVIMIFFVAMPFVIGLMNLVVPLQIGARDVAFPFLNNLSFWFTVVGVILVNVSLGVGEFAQTGWLAYPPLSGIEYSPGVGVDYWIWSLQLSGIGTTLTGINFFVTILKMRAPGMTMFKMPVFTWASLCANVLIIASFPILTVTVALLTLDRYLGTHFFTNDMGGNMMMYINLIWAWGHPEVYILILPVFGVFSEIAATFSRKRLFGYTSLVWATVCITVLSFIVWLHHFFTMGAGANVNAFFGITTMIIAIPTGVKIFNWLFTMYQGRIVFHSAMLWTIGFIVTFSVGGMTGVLLAVPGADFVLHNSLFLIAHFHNVIIGGVVFGCFAGMTYWWPKAFGFKLNETWGKRAFWFWIIGFFVAFMPLYALGFMGMTRRLSQQIDPQFHTMLMIAASGAVLIALGILCLVIQMYVSIRDRDQNRDLTGDPWGGRTLEWATSSPPPFYNFAVVPHVHERDAFWEMKEKGEAYKKPDHYEEIHMPKNSGAGIVIAAFSTIFGFAMIWHIWWLAIVGFAGMIITWIVKSFDEDVDYYVPVAEIEKLENQHFDEITKAGLKNGN [P0ABI8] | 6.54 ± 0.5 h | – | 6.89 ± 0.66 h | 6.02 ± 0.071 h | 6.54 ± 0.66 h | – | 5.86 ± 0.97 h | 14.5 ± 0.29 h | 5.84 ± 0.49 h | 11.9 ± 0.69 h | 6.04 ± 0.13 h | –
